Source: patent publication US7790682B1, “Engineered human acidic fibroblast growth factors and associated methods” (The Florida State University Research Foundation, Inc., priority 2003, dated 2010)

B1: SYM6/Δ120-122: SYM6 FGF-1 mutant plus Arg119→Gly/ΔGly120/ΔPro121/ΔArg122 (protein, UniProt P05230 16-155, looked up, variant L44F M67I L73V V109L L111I C117V R119G del120-122)
Fibroblast growth factor 1: FNLPPGNYKKPKLLYCSNGGHFLRILPDGTVDGTRDRSDQHIQFQLSAESVGEVYIKSTETGQYLAIDTDGLVYGSQTPNEECLFLERLEENHYNTYISKKHAEKNWFLGIKKNGSVKGTHYGQKAILFLPLPVSSD
B2: SYM6/Δ104-106: SYM6 FGF-1 mutant plus Ala103→Gly/ΔGlu104/ΔLys105/ΔAsn106 (protein, UniProt P05230 16-155, looked up, variant A103G E104* K105* N106*)
Fibroblast growth factor 1: FNLPPGNYKKPKLLYCSNGGHFLRILPDGTVDGTRDRSDQHIQLQLSAESVGEVYIKSTETGQYLAMDTDGLLYGSQTPNEECLFLERLEENHYNTYISKKHGWFVGLKKNGSCKRGPRTHYGQKAILFLPLPVSSD
modifications: SYM6 background mutations
notes: SYM6 FGF-1 mutant plus Ala103→Gly/ΔGlu104/ΔLys105/ΔAsn106
B3: SYM5/ΔΔ: SYM5 FGF-1 mutant plus both Δ104-106 and Δ120-122 deletion mutations (protein, UniProt P05230 16-155, looked up, variant L44F L73V V109L L111I C117V A103G del104-106 R119G del120-122)
Fibroblast growth factor 1: FNLPPGNYKKPKLLYCSNGGHFLRILPDGTVDGTRDRSDQHIQFQLSAESVGEVYIKSTETGQYLAMDTDGLVYGSQTPNEECLFLERLEENHYNTYISKKHGWFLGIKKNGSVKGTHYGQKAILFLPLPVSSD

Legend:
[1] = Isothermal equilibrium denaturation in guanidine HCl monitored by CD; format: physicochemical; conditions: for Cm / m-value / ΔG0: GuHCl, 298K, CD signal at 227 nm; for ΔΔG: relative to WT*, negative value = more stable
Procedure: Protein samples were equilibrated overnight in 20 mM N-2-(acetamido)iminodiacetic acid (ADA), 100 mM NaCl pH 6.60 at 298K in 0.1M increments of guanidine HCl (GuHCl). All samples contained a final protein concentration of 25 μM. An Aviv model 202 circular dichroism spectrometer (Proterion Corp., Piscataway, N.J.) equipped with a Peltier controlled temperature unit maintaining a constant temperature of 298K was used for all spectroscopic measurements. For each sample, triplicate scans were collected and averaged. Buffer traces were collected, averaged and subtracted from the sample traces. Data smoothing was performed prior to buffer subtraction using a 5-point Fourier transform filter. The denaturation process was monitored by observing the change in CD signal at 227 nm with increasing GuHCl, according to published references. The general purpose non-linear least squares fitting program DataFit™ (Oakdale Engineering, Oakdale Pa.) was used to fit the change in molar ellipticity at 227 nm versus GuHCl concentration to a six parameter two state model: F=(F0N+SN[D]+F0D+SD[D])e^−((ΔG0+m[D]/RT)/1+e^−((ΔG0+m[D]/RT) (1) where [D] is the denaturant concentration, F0N and F0D are the 0M denaturant molar ellipticity intercepts for the native and denatured states, respectively, and SN and SD are the slopes of the native and denatured state baselines, respectively. ΔG0 and m describe the linear function of the unfolding free energy versus denaturant concentration at 298K. The effect of a given mutation upon the stability of the protein (ΔΔG) was calculated by taking the difference between the Cm values for WT* and mutant and multiplying by the average of the m values, as described by Pace and Scholtz (Measuring the conformational stability of a protein; in Protein Structure: A Practical Approach, Creighton, T. E., ed., pp. 299-321, Oxford University Press, Oxford; 1997): ΔΔG=(CmWT*−Cm mutant)(mWT*+mmutant)/2 (2) Folding Kinetics Measurements.
Previous studies by others of the stability and folding of FGF-1 have been performed by monitoring the fluorescence signal of the single buried Trp 107 in FGF-1. This Trp in the WT* structure is somewhat unusual in that it is more highly quenched in the native state than the denatured. […] We have previously compared the fluorescence and CD spectroscopic response of FGF-1 to denaturation by GuHCl and shown essentially indistinguishable results for both his-tagged and non-his-tagged forms. A tabulation of the mutant thermodynamic data from isothermal equilibrium denaturation, monitored by CD signal, is listed in Table II. The data in this table for the SYM6 mutant are from our previously published isothermal equilibrium denaturation study monitored by fluorescence.

[2] = Folding and unfolding kinetics (Chevron plot, stopped-flow CD, GuHCl); format: physicochemical; conditions: for kf: folding rate constant extrapolated to 0M GuHCl; for kf / ku: global Chevron fit; for ΔΔG‡-D / ΔΔG‡-N: in reference to WT*; for ΔΔG‡-D: positive value = decrease in folding activation barrier; for ΔΔG‡-N: positive value = decrease in unfolding activation barrier; for mf: slope of ln(kf) vs GuHCl; for mu: slope of ln(ku) vs GuHCl; for ku: unfolding rate constant extrapolated to 0M GuHCl
Procedure: Due to signal-to-noise considerations, relatively high protein concentrations (>100 μM) of FGF-1 were required for kinetic studies monitored by CD. At these concentrations protein precipitation occurred in ADA buffer. Therefore, a different buffering system was chosen for the kinetic studies to permit higher protein concentrations without precipitation. Protein samples were dialyzed against 50 mM sodium phosphate, 100 mM NaCl, 10 mM ammonium sulfate, 2 mM DTT, and typically 2.5, 3.0 or 3.8M GuHCl pH 7.5 overnight at 298K prior to data collection (higher concentrations of GuHCl were required to ensure complete denaturation for some stabilizing mutations).
Protein samples were degassed for 10 minutes prior to analysis. Refolding was initiated by a 1:10 dilution of protein solutions into 50 mM sodium phosphate, 100 mM NaCl, 10 mM ammonium sulfate, 2 mM DTT pH 7.5 containing either 0.1M or 0.05M increments of GuHCl up to the midpoint of denaturation. All data were collected using an Aviv model SF305 stopped flow system. Data collection times for each protein were designed to quantify the CD signal over 5 half-lives, or >96% of the total expected amplitude.
Protein samples (300 μM) were dialyzed against 50 mM sodium phosphate, 100 mM NaCl, 10 mM ammonium sulfate, 2 mM DTT pH 7.50 buffer overnight at 298K, and degassed for 10 min prior to data collection. Unfolding was initiated by 1:10 dilution of the native protein into 50 mM sodium phosphate, 100 mM NaCl, 10 mM ammonium sulfate, 2 mM DTT pH 7.5 buffer with final GuHCl concentration in the range of 1.5 to 5.5M in 0.5M increments. The unfolding process was quantified by following the change in CD signal at 227 nm, and data collection times for each protein were designed so as to monitor the CD signal over 3 to 4 half-lives, or >93% of the total expected amplitude.
Triplicate scans were collected for both folding and unfolding kinetic data at each GuHCl buffer condition. In all cases, data from at least three separate experiments were averaged. The kinetic rates and amplitudes versus denaturant concentration were calculated from the time dependent change in CD signal using a single exponential model: I(t)=Aexp(−kt)+C (3) where I(t) is the intensity of CD signal at time t, A is the corresponding amplitude, k is the observed rate constant for the reaction and C is a constant that is the asymptote of the CD signal. Folding and unfolding rate constant data were fit to a global function describing the contribution of both rate constants to the observed kinetics as a function of denaturant (“Chevron” plot): In(kobs)=In(kf0exp(mkfD)+ku0exp(mkuD)) (5) where kf0 and ku0 are the folding and unfolding rate constants, respectively, extrapolated to 0M denaturant, mkf and mku are the slopes of the linear functions relating In(kf) and In(ku), respectively, to D, the denaturant concentration. Changes in activation barriers upon mutation were calculated using a modified version of transition state theory: ΔΔG‡-D=RTIn(kf Mut/kfWT*) and ΔΔG‡-N=RTIn(ku Mut/kuWT*) (6) where kf Mut, ku Mut, kf WT* and ku WT* are the folding and unfolding rates for mutant and WT*, respectively, in water. ΔΔG‡-D, and ΔΔG‡-N are the changes in the activation barrier for folding and unfolding, respectively, between mutation and WT*. A positive value for ΔΔG‡-D or ‡‡G‡-N indicates a decrease in the associated activation barrier energy. Isothermal Titration Calorimetry.
Due to the relatively weak differential CD signal of native and denatured FGF-1, the folding kinetics study required relatively high protein concentrations (>5 mg/ml). […] Thus, the refolding rate constants were not obtainable below certain denaturant concentrations for these mutants. […] The SYM6Δ120-122 mutant is substantially destabilized relative to the WT* protein (see Table II) and presents a relatively short “folding arm” in the Chevron plot, for this reason there is greater uncertainty associated with the folding kinetics determined for this mutant. […]

Row | Molecule | Cm [1] | m-value [1] | ΔG0 [1] | ΔΔG [1] | kf [2] | ΔΔG‡-D [2] | ΔΔG‡-N [2] | mf [2] | mu [2] | ku [2] | stability of the actual combination mutant ([1]; relative to the SYM5 protein) | folding behavior ([2]; all denaturant concentrations evaluated)
1 | B1 | 0.79 ± 0.01 M | 20.0 ± 0.2 kJ/mol M | 3.75 ± 0.048 kcal/mol | 1.29 kcal/mol | 17.3 s⁻¹ | 0.98 kcal/mol | 1.45 kcal/mol | -9.45 M⁻¹ | 0.86 M⁻¹ | 7.95 1 × 10^−3 sec^−1 | – | –
2 | B2 | 1.21 ± 0.01 M | 16.9 ± 0.5 kJ/mol M | 4.9 ± 0.12 kcal/mol | -0.669 kcal/mol | 30.1 s⁻¹ | 1.31 kcal/mol | 0.935 kcal/mol | -5.41 M⁻¹ | 0.94 M⁻¹ | 3.33 1 × 10^−3 sec^−1 | – | –
3 | B3 | 1.89 ± 0.01 M | 18.1 ± 0.7 kJ/mol M | 8.17 ± 0.287 kcal/mol | -3.8 kcal/mol | 40.4 s⁻¹ | 1.48 kcal/mol | 0.146 kcal/mol | -4.57 M⁻¹ | 0.66 M⁻¹ | 0.88 1 × 10^−3 sec^−1 | -3.61 kcal/mol | single exponential folding behavior
